This passage reports Kd results from publication PMC11182015, “Cytosolic RNA binding of the mitochondrial TCA cycle enzyme malate dehydrogenase”.

In the data set the target is T1, MDH2 preprotein (malate dehydrogenase 2, mitochondrial), with N-terminal MTS (Homo sapiens, UniProt P40926 1-338).
T1 sequence: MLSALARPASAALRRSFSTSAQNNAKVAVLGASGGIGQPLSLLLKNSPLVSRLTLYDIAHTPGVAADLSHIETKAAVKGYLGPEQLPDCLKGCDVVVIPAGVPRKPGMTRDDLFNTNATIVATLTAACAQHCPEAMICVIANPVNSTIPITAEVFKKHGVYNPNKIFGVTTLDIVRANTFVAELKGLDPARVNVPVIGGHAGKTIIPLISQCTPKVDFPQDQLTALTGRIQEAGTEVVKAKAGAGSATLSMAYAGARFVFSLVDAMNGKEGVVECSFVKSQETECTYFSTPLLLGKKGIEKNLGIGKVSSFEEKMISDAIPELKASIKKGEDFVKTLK
Briefly: EMSA; RNA 10 nM; EMSA: 10 mM Tris-HCl pH 7.5, 150 mM NaCl, 20% glycerol, 0.5 mM DTT, 5 mM MgCl2, 0.01 ug/uL BSA, 25 C 20 min; 10 nM Cy5-RNA; native 4-15% Tris-glycine gel. The conditions noted are these: protein: recombinant; tags: C-terminal Strep-II; label: Cy5.

B1: RPS23 5'-UTR control probe (ssRNA)
RNA: AUAUUUAGCUCAGGCCCGUGGCGCC
A word on the Kd: it is the free concentration of one partner at which half of the binding sites on the other are occupied at equilibrium, for simple one-to-one binding. With B1, the Kd was 1500 nM.
